The labels stand for the following.
T1: human ABCC4 (Homo sapiens, UniProt O15439)
T1 construct: expressed in transfected cells
T1 sequence (O15439 1-1325): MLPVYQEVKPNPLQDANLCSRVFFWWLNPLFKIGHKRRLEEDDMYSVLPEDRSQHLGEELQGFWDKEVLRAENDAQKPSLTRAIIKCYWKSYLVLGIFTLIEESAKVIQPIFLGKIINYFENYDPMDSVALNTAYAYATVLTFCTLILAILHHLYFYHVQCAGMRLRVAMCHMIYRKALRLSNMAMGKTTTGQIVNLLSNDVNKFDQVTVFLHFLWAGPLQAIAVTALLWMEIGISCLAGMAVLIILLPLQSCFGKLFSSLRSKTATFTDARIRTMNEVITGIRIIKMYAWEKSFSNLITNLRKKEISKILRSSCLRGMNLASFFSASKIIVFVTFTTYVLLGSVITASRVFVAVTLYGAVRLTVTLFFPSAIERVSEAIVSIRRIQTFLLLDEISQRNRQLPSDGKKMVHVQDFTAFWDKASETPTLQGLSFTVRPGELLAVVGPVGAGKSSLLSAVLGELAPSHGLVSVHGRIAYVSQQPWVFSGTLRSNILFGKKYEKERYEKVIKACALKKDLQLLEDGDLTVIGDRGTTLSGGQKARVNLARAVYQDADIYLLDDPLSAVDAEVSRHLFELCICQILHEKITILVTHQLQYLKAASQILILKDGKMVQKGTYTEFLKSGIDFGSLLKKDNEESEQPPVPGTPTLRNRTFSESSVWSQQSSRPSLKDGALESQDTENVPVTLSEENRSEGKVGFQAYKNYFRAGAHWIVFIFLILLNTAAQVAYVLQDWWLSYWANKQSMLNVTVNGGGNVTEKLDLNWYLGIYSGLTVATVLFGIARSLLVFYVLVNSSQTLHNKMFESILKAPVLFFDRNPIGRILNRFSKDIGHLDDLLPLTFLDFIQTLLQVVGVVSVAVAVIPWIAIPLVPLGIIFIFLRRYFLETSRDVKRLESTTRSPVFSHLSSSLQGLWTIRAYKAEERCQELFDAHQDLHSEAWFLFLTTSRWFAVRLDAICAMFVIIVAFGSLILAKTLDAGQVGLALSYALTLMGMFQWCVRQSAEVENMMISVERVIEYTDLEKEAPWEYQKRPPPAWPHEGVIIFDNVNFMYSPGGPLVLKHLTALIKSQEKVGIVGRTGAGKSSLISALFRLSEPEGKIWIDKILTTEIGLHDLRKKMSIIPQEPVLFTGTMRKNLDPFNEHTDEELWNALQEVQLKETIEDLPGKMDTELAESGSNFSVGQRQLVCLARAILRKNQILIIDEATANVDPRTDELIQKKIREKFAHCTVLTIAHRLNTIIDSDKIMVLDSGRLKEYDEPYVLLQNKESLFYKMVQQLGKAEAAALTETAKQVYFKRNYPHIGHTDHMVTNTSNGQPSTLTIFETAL

B1: C4.947: anti-ABCC4 antibody raised in rats; VH SEQ ID NO: 5, VL SEQ ID NO: 128 (antibody, V domains shown)
VH: EVKLVESGGGLVQPGGSMRLSCAASGFTFTDFYMNWIRQPAGKAPEWLGFIRNKANAYTTAYNPSVKGRFTISRDNAQNMLYLQMNTLRAEDTATYYCARSNYGFDYWGQGVMVTVSS
VL: DVAMTQTPPSLSVAIGQSVSISCKSSQSLVYSDGKTYLHWLLQSSGRSPKRLIYQVSNLDSGVPDRFSGTGSQKDFTLKISRVEAKDLGVYYCAQTTHFPFTFGSGTKLEIK
B2: C4.884: anti-ABCC4 antibody raised in rats; VH SEQ ID NO: 1, VL SEQ ID NO: 124 (antibody, V domains shown)
VH: EVQLVESGPGLVQPSQTLSLTCTVSGFSLTSNSVHWVRQPPGKGLEWIGAIWSGGSTDYNSALKSRLSISRDTSKSQVFLKMNSLQTEDTAIYFCTGLIFPYWGQGASVTVSS
VL: DVVMTQTPSILSGTLGRSVSISCRSSQSLLDSDGTTYLYWFLQRPGQSPQRLIYLVSNLGSGVPNRFSGSGSGTDFTLKISGVEAEDLGVYYCMQATHVPFTFGSGTKLEIK
B3: C4.987: anti-ABCC4 antibody raised in rats; VH SEQ ID NO: 15, VL SEQ ID NO: 135 (antibody, V domains shown)
VH: EVQLVESGGGLVQPGRSMKLSCAASGFTFSNYYMAWVRQAPTKGLEWVASISTGGGNTHYRDSVKGRFTISRDNAKSTLYLQMDSLRSEETATYYCARGEDRYKGVFAYWGQGTLVTVSS
VL: DVQMTQSPSNLAASPGESVSINCKASKSISKYLAWYQQKPGKANKLLIYSGSTLQSGTPSRFSGSGSGTDFTLTIRNLEPEDFGLYYCQHHNEYPPTFGAGTKLELK
B4: C4.1000: anti-ABCC4 antibody raised in rats; VH SEQ ID NO: 18, VL SEQ ID NO: 138 (antibody, V domains shown)
VH: QVQLTESGPGLVQPSQTLSLTCTISGFSLTSYGVSWVRQPPGKGLEWIGAIWSGGGTNYDSALKSRLSISRDTSKSQVLLKMNSLQTEDTAMYFCASGDWFAYWGQGTLVTVSS
VL: DIQMTQSPPSLSASLGDKVTITCQASQNINKYIAWFQQKPGKAPRLLIRYTSTLESGTPSRFSGSGSGRDYSFSISTVESEDIASYYCLQYVNLYTFGAGTKLELK
B5: C4.991: anti-ABCC4 antibody raised in rats; VH SEQ ID NO: 16, VL SEQ ID NO: 136 (antibody, V domains shown)
VH: EVKLVESGGGLVQPGRSLQVSCVASGFIFTDYYMAWVRQAPTKGLEWVAYINYDGGSTYYGDSVKGRFTISRDNAKSTLYLQMNSLRSEDMATYYCARRDYGSKFDNWGQGTLVTVSS
VL: DIVMTQSPSLLSASVGDRVTLTCKGSQNINNFLAWYQQKRGEAPKLLIYKTNSLHTGIPSRFSGSGSGTEYTLTISSLHSEDLATYYCYQYNNGYTFGAGTKLELK
B6: C4.925: anti-ABCC4 antibody raised in rats; VH SEQ ID NO: 3, VL SEQ ID NO: 126 (antibody, V domains shown)
VH: EVQLVESGGGLVQPGRSLKLSCAASGFTFSDYYMAWVRQAPTKGLEWVAYINYDGGSTHYGDSVKGRFTISRDNEKSTLYLQMNSLRSEDMATYYCARENYGYNSFDYWGQGASVTVSS
VL: DIQVTQSPASLSASLGETISIECLTSEDISSYLTWYQQKPGKSPHLLIYGANSLQAGVPSRFSGSGSGTQYSLKISSMQPEDEGDYFCQQSYKFPLTFGSGTKLELK

For the first assay, the system named is cynomolgus ABCC4. Nature of the assay: Flow cytometry (FACS) binding to C6 cells stably transfected to express cynomolgus ABCC4 (Table 3 study). The arrangement: key to Cynomolgus ABCC4 binding: Negative (−) is defined as maximum response (Rmax(MFI)) below background level; Positive (+) is defined as MFI>1000. The note with it: C6 cells stably transfected to express cynomolgus ABCC4, FACS; Table 3. Here is the method: (§1) Binding titration of recombinant antibodies to ABCC4 transfectants was performed by serial dilution of antibodies from about 666 nM. Diluted antibody in flow cytometry buffer was incubated with cells on ice for 30 min. After 2 washes with flow cytometry buffer, bound antibody was detected with PE-labeled F(ab′)2 fragment goat anti-human IgG (Jackson ImmunoResearch) diluted 1:200 in flow cytometry buffer and incubated with cells for 20 min on ice. After 2 washes with flow cytometry buffer fluorescence was measured on an Attune N×T flow cytometer. Data were analyzed with GraphPad Prism 8.0 software to determine EC50's.
(§2) Human embryonic kidney HEK 293T cells and murine C6 (ATCC CCL-107) were transfected with human or cynomolgus ABCC4 cDNA with C-terminal fused FLAG tag in a pMONO-hygro vector with Lipofectamine 3000 (Invitrogen #L3000001). The cells were treated with 0.2 mg/ml and 0.5 mg/ml hygromycin respectively for about 2 weeks while cultivated in DMEM and 10% FBS with 0.2 mg/ml hygromycin and 0.5 mg/ml hygromycin, respectively. The cells were washed with PBS, and stained with […] of anti-FLAG-PE after fixing and permeablization. Clones expressing ABCC4 were single-cell sorted into 200 μl DMEM with 10% FBS using a BD Aria FACS machine and cultivated in 96 well plates using standard techniques in an incubator at 37° C. and 5% CO 2. Two weeks later clones expressing high levels of ABCC4 were screened and amplified.
(§3) Antibody binding to cells was evaluated by flow cytometry. Murine C6 cells stably transfected to express human or cynomolgus ABCC4 were washed once in flow cytometry buffer (PBS+2% FBS+0.02% sodium azide), resuspended at 2×10^6 cells/mL in flow cytometry buffer, and dispensed into 96-well microtiter plates at 0.1 mL/well. Recombinant antibodies were added to cells at 5 ug/mL for initial binding confirmation, or serially diluted from 100 ug/mL in flow cytometry buffer. After incubating cells on ice for 30 min, cells were washed twice with flow cytometry buffer. Bound antibody was detected with PE-labeled F(ab′)2 fragment goat anti-human IgG (Jackson ImmunoResearch) and evaluated on an Attune N×T flow cytometer. EC50 is calculated to be the concentration of antibody that gives half maximal response.
(§4) Table 3 lists the following characteristics of the rat anti-ABCC4 antibodies tested: binding to C6 cells stably transfected to express human ABCC4 measured by FACS and binding to C6 cells stably transfected to express cynomolgus ABCC4 measured by FACS. Negative (−) is defined as maximum response (Rmax(MFI)) below background level. Positive (+) is defined as MFI>1000.
In general terms: Flow cytometry measures light scatter and fluorescence of single cells or particles in a stream.
B1: the “Cynomolgus ABCC4 binding” value was “−”.
Take B2: the “Cynomolgus ABCC4 binding” value is given as “−”.
Same read-out and setting: under B3 stands “−”; under B4, “−”.
The same measure, in the same setting: under B5 stands “−”; under B6, “−”.

The next assay deals with T1, human ABCC4. The assay can be described thus: Flow cytometry (FACS) binding to C6 cells stably transfected to express human ABCC4 (different experiment, Table 4). The note with it: C6 cells stably transfected to express human ABCC4, FACS; different experiment, Table 4. In a few lines: (§5)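 Murine C6 cells stably expressing FLAG-tagged human or cynomolgus ABCC4 incubated 30 min on ice with antibodies, either 5 ug/mL or serially diluted from 100 ug/mL, in PBS+2% FBS+0.02% azide. Detection with PE anti-human IgG F(ab′)2 by flow cytometry; EC50 at half-maximal MFI; negative below background, positive >3× background.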
Turning to B1, the “Human ABCC4 binding” value is on record as “+ (Positive (+)=MFI>3× background level)”.
B2: the “Human ABCC4 binding” value is listed as “+ (Positive (+)=MFI>3× background level)”.
On the same count and under the same terms, under B3 stands “+ (Positive (+)=MFI>3× background level)”.
The same measure, in the same setting: under B4 stands “+ (Positive (+)=MFI>3× background level)”.
Same read-out and setting: for B5 the value was “+ (Positive (+)=MFI>3× background level)”; for B6, “+ (Positive (+)=MFI>3× background level)”.

The target in the next assay is T1, human ABCC4. Nature of the assay: Flow cytometry (FACS) binding to C6 cells stably transfected to express human ABCC4 (Table 3 study). The note with it: C6 cells stably transfected to express human ABCC4, FACS; Table 3. On the procedure: as §1, §2, §3, §4
Turning to B1, the “Human ABCC4 binding” value is “+ (Positive (+) is defined as MFI>1000)”.
As for B2, the “Human ABCC4 binding” value is “+ (Positive (+) is defined as MFI>1000)”.
Still for that read-out and setting: under B3 stands “+ (Positive (+) is defined as MFI>1000)”; under B4, “+ (Positive (+) is defined as MFI>1000)”; under B5, “+ (Positive (+) is defined as MFI>1000)”.
With B6, the “Human ABCC4 binding” value was “+ (Positive (+) is defined as MFI>1000)”.

A further assay concerns cynomolgus ABCC4. Nature of the assay: Flow cytometry (FACS) binding to C6 cells stably transfected to express cynomolgus ABCC4 (different experiment, different C6.cC4 cell line, Table 4). On the set-up: key to Cynomolgus ABCC4 binding: Negative (−)=Rmax (MFI) below background level; Positive (+)=MFI>3× background level. The note with it: different C6.cC4 cell line, C6 cells stably transfected to express cynomolgus ABCC4, FACS; Table 4. The procedure, abridged:
as §5
Consider B1, for which the “Cynomolgus ABCC4 binding” value is recorded as “−”.
Take B2: the “Cynomolgus ABCC4 binding” value was “−”.
Still for that read-out and setting: for B3 the value was “−”; for B4, “−”; for B5, “−”.
Same read-out and setting: for B6 the value was “−”.
